Source: paper PMC6985235
pKd: −log10 of the molar value.

Tests used:
[1] = target: heat shock protein 72 (TvHSP72); experiment: co-immunoprecipitation with anti-HA antibody, Western blotting; conditions: three experiments
[2] = target: hydrogenosomal heat shock protein 70 (HdHSP70); experiment: as above; conditions: total lysate, three experiments
[3] = target: binding immunoglobulin protein (TvBip); experiment: as above; conditions: three experiments
[4] = target: Myb3 (endogenous); experiment: as above; conditions: for ratio to parent: three experiments
[5] = target: TvMyb3IPhmw; experiment: as above; conditions: P100 fraction; three experiments
[6] = target: His-TvCyP2 (Trichomonas vaginalis) (UniProt A2DLL4); experiment: ITC

Substance HA-TvCyP1 (from UniProt A2DT06) R63A has a ratio to parent ([1]; total lysate, ** p < 0.01) of 0.5, a ratio to parent ([2]; ** p < 0.01) of 0.1 and a ratio to parent ([3]; total lysate) of 1. It also gave a ratio to parent ([4]; total lysate, ** p < 0.01) of 0.6.

In the case of HA-TvCyP2 (from UniProt A2DLL4) R75A, the ratio to parent ([1]; P100 fraction, * p < 0.05) was 0.7, the ratio to parent ([1]; S100 fraction, ** p < 0.01) was 0.6 and the ratio to parent ([1]; total lysate, ** p < 0.01) was 1.6. For the same substance, the ratio to parent [2] was 0.9, the ratio to parent ([3]; P15 fraction) was 1 and the ratio to parent ([3]; P100 fraction) was 1. The ratio to parent ([3]; total lysate, ** p < 0.01) was 0, the ratio to parent [5] was 1 and the other: relative signal intensity [4] was 0.1. For the same substance, the ratio to parent ([4]; P15 fraction, * p < 0.05) was 0.7, the ratio to parent ([4]; P100 fraction, ** p < 0.01) was 0.5 and the ratio to parent ([4]; total lysate, ** p < 0.01) was 0.4.

Substance His-Myb3^53–180 (domain or fragment) has a pKd [6] of 4.26.
